Measured values taken from patent US20220127355A1 (INTEGRAL MOLECULAR, published 2022).

T1: Claudin 3 (UniProt O15551 1-220)
T1 construct: also called CLDN3
T1 sequence (looked up): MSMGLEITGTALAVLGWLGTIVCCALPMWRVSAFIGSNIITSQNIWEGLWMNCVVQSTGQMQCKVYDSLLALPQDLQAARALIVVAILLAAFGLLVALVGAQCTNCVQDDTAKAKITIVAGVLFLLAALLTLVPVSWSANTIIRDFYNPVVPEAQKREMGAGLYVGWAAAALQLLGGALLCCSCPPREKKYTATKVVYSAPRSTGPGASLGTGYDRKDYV

T2: Q78A
T2 construct: Shotgun Mutagenesis mutant; also called Claudin 6 Q78A
T2 chain: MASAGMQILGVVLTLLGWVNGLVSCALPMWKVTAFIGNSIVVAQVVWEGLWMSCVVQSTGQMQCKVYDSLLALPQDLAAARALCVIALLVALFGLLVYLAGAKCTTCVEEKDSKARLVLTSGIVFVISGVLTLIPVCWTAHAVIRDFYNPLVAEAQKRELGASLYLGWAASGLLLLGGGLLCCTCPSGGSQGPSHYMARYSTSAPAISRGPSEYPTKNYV

T3: V152A
T3 construct: Shotgun Mutagenesis mutant; also called Claudin 6 V152A
T3 chain: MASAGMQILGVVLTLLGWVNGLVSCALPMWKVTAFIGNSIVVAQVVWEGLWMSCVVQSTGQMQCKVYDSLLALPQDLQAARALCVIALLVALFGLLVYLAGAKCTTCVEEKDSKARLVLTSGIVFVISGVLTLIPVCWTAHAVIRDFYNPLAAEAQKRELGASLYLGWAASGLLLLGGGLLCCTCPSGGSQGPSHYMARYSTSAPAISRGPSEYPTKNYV

T4: T33A
T4 construct: Shotgun Mutagenesis mutant; also called Claudin 6 T33A
T4 chain: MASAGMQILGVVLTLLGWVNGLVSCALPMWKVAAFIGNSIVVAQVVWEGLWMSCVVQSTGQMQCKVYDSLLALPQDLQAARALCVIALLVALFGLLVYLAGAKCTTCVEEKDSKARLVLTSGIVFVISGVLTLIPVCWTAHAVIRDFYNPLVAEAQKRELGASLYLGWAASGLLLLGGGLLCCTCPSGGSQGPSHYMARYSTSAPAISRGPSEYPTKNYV

T5: Q156A
T5 construct: Shotgun Mutagenesis mutant; also called Claudin 6 Q156A
T5 chain: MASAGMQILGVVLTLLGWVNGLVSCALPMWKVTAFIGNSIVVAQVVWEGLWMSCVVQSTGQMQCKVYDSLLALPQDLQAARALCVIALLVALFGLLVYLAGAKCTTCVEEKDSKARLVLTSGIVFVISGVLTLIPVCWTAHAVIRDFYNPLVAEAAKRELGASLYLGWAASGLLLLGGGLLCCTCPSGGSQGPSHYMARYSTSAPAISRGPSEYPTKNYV

T6: P74A
T6 construct: Shotgun Mutagenesis mutant; also called Claudin 6 P74A
T6 chain: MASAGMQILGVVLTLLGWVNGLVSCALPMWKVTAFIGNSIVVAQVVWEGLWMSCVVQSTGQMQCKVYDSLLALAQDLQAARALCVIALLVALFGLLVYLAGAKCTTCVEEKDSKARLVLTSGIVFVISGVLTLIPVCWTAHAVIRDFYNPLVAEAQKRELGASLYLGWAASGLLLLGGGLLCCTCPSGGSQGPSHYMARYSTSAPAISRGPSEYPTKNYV

T7: E154A
T7 construct: Shotgun Mutagenesis mutant; also called Claudin 6 E154A
T7 chain: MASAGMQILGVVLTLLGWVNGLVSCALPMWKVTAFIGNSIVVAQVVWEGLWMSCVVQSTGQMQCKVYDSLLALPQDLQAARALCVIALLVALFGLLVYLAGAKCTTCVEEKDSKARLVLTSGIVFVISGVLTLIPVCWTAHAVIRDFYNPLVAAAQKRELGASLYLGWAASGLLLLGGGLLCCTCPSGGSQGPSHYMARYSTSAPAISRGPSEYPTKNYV

T8: D146A
T8 construct: Shotgun Mutagenesis mutant; also called Claudin 6 D146A
T8 chain: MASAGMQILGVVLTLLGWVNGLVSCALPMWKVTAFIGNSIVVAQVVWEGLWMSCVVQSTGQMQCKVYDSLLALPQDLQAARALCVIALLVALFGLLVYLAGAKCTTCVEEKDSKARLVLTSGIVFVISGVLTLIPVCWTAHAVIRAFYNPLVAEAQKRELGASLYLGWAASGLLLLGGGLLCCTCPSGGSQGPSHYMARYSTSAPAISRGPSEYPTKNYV

T9: V45A
T9 construct: Shotgun Mutagenesis mutant; also called Claudin 6 V45A
T9 chain: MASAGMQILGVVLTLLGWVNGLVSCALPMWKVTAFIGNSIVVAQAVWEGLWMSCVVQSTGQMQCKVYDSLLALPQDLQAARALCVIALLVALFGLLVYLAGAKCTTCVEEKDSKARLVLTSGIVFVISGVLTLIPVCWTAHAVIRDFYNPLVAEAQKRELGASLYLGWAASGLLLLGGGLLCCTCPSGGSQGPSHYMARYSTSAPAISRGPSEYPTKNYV

T10: E48A
T10 construct: Shotgun Mutagenesis mutant; also called Claudin 6 E48A
T10 chain: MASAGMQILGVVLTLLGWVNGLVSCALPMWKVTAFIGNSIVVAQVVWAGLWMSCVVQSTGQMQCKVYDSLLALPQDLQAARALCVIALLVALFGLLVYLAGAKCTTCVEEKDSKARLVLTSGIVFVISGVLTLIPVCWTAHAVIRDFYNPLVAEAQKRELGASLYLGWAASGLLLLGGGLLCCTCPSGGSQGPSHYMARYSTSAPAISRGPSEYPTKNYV


What was measured:
Claudin 3 = target: T1, Claudin 3; assay: flow cytometry, HEK-293T cells transiently transfected with the indicated claudin; pUC19 = empty vector control
Procedure: FIG. 2 illustrates the results of a binding assay showing that Claudin 6 MAbs bind to human Claudin 6 preferentially over other Claudin proteins. Human embryonic kidney 293T (HEK-293T) cells were transiently transfected with DNA for the indicated Claudin protein or empty vector along with GFP (pUC) for 22 hours.

Q78A = target: T2, Q78A; assay: Shotgun Mutagenesis epitope mapping; mean (range), % of wild-type Claudin 6
V152A = target: T3, V152A; assay: as above
T33A = target: T4, T33A; assay: as above
Q156A = target: T5, Q156A; assay: as above
P74A = target: T6, P74A; assay: as above
E154A = target: T7, E154A; assay: as above
D146A = target: T8, D146A; assay: as above
V45A = target: T9, V45A; assay: as above
E48A = target: T10, E48A; assay: as above

Binder | binding result (Claudin 3) | Binding Reactivity (% WT) (Q78A) | Binding Reactivity (% WT) (V152A) | Binding Reactivity (% WT) (T33A) | Binding Reactivity (% WT) (Q156A) | Binding Reactivity (% WT) (P74A) | Binding Reactivity (% WT) (E154A) | Binding Reactivity (% WT) (D146A) | Binding Reactivity (% WT) (V45A) | Binding Reactivity (% WT) (E48A)
IM173 (antibody, V domains shown, Detected with anti-human IgG Fc secondary) VH: AVTLDESGGGLQTPGGALSLVCKASGFTFSSYSMFWVRRAPGKGLEWVAGIDSGSTTFYGSAVKGRATISRDNGQSTVRLQLNNLRAEDTATYYCAKDAYGYCGWSGCSADSIDAWGHGTEVIVSS VL: ALTQPSSVSANPGGTVEITCSGGNNYYGWYQQKSPGSAPVTVIYYNDKRPSDIPSRFSGSKSGSTGTLTITGVQADDEAVYFCGGWDSSGGIFGAGTTLTVL | no binding (tested: log [mAb] about -7.2 M) | 144 % WT | 58.2 % WT | 116 % WT | 0.9 % WT | 147 % WT | 134 % WT | 119 % WT | 76.1 % WT | -0.5 % WT
IM171 (antibody, V domains shown, Detected with anti-human IgG Fc secondary; also called LM171) VH: AVTLDESGGGLQTPGGALSLVCKASGFDFSSYAMNWVRQAPGKGLEWVAGIGSTGSSTGYGPAVKGRATISRDNGQSTLRLQLNNLRAEDTAIYYCAKSVGNGNSWSGYIATSIDAWGHGTEVIVSS VL: ALTQPSSVSANLGGTVKLTCSGGSSGYGWYQQKSPGSAPVTVIYSNDKRPSDIPSRFSGSLSGSTGTLTITGVQADDEAVYFCGSTDNSYVGIFGAGTTLTVL | no binding (tested: log [mAb] about -7.2 M) | 151 % WT | 129 % WT | 22.8 % WT | 102 % WT | 37.5 % WT | 4 % WT | 57.6 % WT | 88.4 % WT | 0.9 % WT
